According to paper PMC5806898:

How the values were obtained:
CD8-CIMPR = CD8-CIMPR (UniProt P11717); experiment: co-IP; native immunoprecipitation with anti-CD8 and protein A-Sepharose from HeLa cells expressing CD8-CIMPR or CD8-sortilin (control: HeLa cells); western blot, bands quantified with IMAGEJ, 3 repeats
CD8-sortilin = CD8-sortilin (UniProt Q99523); experiment: as above

Chain of UniProt P11717 (P11717 whole entry): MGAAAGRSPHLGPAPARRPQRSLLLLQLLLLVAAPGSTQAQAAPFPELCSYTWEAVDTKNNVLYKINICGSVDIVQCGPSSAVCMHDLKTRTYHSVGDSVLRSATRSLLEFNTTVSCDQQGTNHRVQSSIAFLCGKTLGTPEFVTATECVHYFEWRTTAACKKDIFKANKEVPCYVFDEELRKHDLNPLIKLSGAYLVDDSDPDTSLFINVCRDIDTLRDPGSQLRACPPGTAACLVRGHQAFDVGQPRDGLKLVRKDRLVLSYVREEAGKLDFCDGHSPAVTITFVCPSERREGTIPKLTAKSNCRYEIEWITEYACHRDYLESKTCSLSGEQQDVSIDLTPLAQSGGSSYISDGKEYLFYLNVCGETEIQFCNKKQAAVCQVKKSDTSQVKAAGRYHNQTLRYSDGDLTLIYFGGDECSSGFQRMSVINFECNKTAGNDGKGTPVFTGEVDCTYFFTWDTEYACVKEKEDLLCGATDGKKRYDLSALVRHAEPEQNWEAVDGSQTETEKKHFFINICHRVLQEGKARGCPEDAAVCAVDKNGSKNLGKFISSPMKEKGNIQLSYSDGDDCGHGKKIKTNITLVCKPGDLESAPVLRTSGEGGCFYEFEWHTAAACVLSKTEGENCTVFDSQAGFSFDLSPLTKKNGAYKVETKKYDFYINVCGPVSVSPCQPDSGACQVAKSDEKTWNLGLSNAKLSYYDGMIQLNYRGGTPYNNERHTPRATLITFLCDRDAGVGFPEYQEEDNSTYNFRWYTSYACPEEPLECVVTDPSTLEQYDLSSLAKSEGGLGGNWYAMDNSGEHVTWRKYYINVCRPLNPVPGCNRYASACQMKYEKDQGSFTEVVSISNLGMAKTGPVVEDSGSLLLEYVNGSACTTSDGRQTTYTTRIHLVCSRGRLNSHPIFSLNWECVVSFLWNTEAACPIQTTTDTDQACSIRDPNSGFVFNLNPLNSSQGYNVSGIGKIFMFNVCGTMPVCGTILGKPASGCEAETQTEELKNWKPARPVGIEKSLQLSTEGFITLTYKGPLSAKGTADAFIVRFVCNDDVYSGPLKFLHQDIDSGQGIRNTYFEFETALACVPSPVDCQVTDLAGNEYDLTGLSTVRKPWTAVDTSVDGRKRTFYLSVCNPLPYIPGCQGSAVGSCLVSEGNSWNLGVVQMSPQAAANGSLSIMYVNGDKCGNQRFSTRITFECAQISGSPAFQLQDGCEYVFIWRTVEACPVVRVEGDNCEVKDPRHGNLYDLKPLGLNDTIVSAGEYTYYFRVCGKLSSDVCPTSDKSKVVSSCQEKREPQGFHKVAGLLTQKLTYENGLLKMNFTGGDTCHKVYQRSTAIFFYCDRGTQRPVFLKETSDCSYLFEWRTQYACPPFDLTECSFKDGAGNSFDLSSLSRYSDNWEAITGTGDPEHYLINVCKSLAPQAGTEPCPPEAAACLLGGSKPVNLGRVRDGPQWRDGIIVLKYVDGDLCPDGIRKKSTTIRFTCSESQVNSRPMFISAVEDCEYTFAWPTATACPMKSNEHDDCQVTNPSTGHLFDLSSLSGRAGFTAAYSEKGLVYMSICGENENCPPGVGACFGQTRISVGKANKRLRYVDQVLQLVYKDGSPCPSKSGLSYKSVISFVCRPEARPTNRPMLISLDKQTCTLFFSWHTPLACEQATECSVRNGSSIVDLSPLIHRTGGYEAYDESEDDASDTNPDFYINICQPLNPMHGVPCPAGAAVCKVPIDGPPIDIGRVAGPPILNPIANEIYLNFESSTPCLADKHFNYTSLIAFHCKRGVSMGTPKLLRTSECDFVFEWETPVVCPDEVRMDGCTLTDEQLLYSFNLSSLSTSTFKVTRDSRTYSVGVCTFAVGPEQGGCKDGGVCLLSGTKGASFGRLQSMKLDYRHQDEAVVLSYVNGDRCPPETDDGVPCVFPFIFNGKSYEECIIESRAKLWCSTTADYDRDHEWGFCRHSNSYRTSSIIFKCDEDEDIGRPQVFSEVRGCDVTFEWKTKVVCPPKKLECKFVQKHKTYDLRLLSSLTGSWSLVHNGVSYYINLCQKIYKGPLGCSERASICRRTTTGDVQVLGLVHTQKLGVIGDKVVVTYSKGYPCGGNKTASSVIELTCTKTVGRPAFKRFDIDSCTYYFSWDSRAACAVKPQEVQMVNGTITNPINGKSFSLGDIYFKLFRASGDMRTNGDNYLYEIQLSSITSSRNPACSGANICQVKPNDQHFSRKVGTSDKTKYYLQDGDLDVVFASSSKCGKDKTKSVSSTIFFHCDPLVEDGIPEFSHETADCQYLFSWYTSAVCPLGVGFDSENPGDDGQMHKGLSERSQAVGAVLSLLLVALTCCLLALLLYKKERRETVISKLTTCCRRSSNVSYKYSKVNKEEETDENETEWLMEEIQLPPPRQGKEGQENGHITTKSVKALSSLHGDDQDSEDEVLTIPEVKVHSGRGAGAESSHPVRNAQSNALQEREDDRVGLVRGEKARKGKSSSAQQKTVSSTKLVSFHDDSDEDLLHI

percent of input pulled down (CD8-CIMPR)	percent of input pulled down (CD8-sortilin)	Molecule
0.1%	0.05%	AP-1 γ (from UniProt O43747 1-822) (natural protein)
0.15%	0.15%	SPG15 (from UniProt Q68DK2 1-2539) (natural protein)
0.08%	0.23%	AP-5 ζ subunit (natural protein) MFSAGAESLLHQAREIQDEELKKFCSRICKLLQAEDLGPDTLDSLQRLFLIISATKYSRRLEKTCVDLLQATLGLPACPEQLQVLCAAILREMSPSDSLSLAWDHTQNSRQLSLVASVLLAQGDRNEEVRAVGQGVLRALESRQPEGPSLRHLLPVMAKVVVLSPGTLQEDQATLLSKRLVDWLRYASLQQGLPHSGGFFSTPRARQPGPVTEVDGAVATDFFTVLSSGHRFTDDQWLNVQAFSMLRAWLLHSGPEGPGTLDTDDRSEQEGSTLSVISATSSAGRLLPPRERLREVAFEYCQRLIEQSNRRALRKGDSDLQKACLVEAVLVLDVLCRQDPSFLYRSLSCLKALHGRVRGDPASVRVLLPLAHFFLSHGEAAAVDSEAVYQHLFTRIPVEQFHSPMLAFEFIQFCRDNLHLFSGHLSTLRLSFPNLFKFLAWNSPPLTSEFVALLPALVDAGTALEMLHALLDLPCLTAVLDLQLRSAPAASERPLWDTSLRAPSCLEAFRDPQFQGLFQYLLRPKASGATERLAPLHQLLQPMAGCARVAQCAQAVPTLLQAFFSAVTQVADGSLINQLALLLLGRSDSLYPAPGYAAGVHSVLSSQFLALCTLKPSLVVELARDLLEFLGSVNGLCSRASLVTSVVWAIGEYLSVTYDRRCTVEQINKFFEALEALLFEVTQCRPSAALPRCPPQVVTVLMTTLTKLASRSQDLIPRASLLLSKMRTLAHSPATSSTHSEEGAEAIRTRATELLTLLKMPSVAQFVLTPSTEVCSPRYHRDANTALPLALRTVSRLVEREAGLMPG
